PMC10663602

What was measured:
[1] = molecular target: hFcα-tFcµ-chi1 (human | Oncorhynchus mykiss (rainbow trout)); assay: SEC; preparative SEC (Superose 6 Increase 10/300) after Ni-NTA; share of pIg and mIg in the total protein purified (Supplementary Fig. 6)
[2] = molecular target: hFcα-tFcµ-chi2 (human | Oncorhynchus mykiss (rainbow trout)); assay: as above

B1: hFcα-tFcµ-chi1 (protein)
chain: CHPRLSLHRPALEDLLLGSEANLTCTLTGLRDASGVTFTWTPSSGKSAVQGPPERDLCGCYSVSSVLPGCAEPWNHGKTFTCTAAYPESKTPLTATLSKSGNTFRPEVHLLPPPSEELALNELVTLTCLARGFSPKDVLVRWLQGSQELPREKYLTWASRQEPSQGTTTFAVTSILRVAAEDWKKGDTFSCMVGHEALPLAFTNIIMRTIDRTSNQPNLVNLSLNVPQRCMAQ
modifications: here or on the partner: N-glycosylated; polymeric, about a dimer by SEC-MALS. Table prints the same sequence for chi1 and chi2 / N-glycosylated; polymeric, about a dimer by SEC-MALS. Table prints the same sequence for chi1 a
B1 was tested, and the percent of the total protein purified that is pIg [1] was less than 30%.

B2: hFcα-tFcµ-chi2 (protein)
chain: B1 chain
modifications: here or on the partner: N-glycosylated; P1 about a tetramer, P2 monomer. Table prints the same sequence for chi1 and chi2 / N-glycosylated; P1 about a tetramer, P2 monomer. Table prints the same sequence for chi1 and chi2
Work on B2 yielded a percent of the total protein purified that is pIg [2] of less than 30%.
